For one assay, the target named is HLA-B*37:01. The assay can be described thus: IEDB peptide-MHC binding, purified MHC/competitive/fluorescence; ≥ and ≤ were set here for values at or beyond the usual limits of such assays. The following applies: source organism: Monodelphis domestica.
Assay [1] has as its target HLA-B*08:01. Described as above. The following applies: source organism: Monodelphis domestica.
The target in assay [2] is HLA-B*07:02. The assay is described as above. The settings on record: source organism: Monodelphis domestica.
The next assay addresses HLA-B*40:02. The assay is described as above. The settings on record: source organism: Monodelphis domestica.
The target in another assay is HLA-B*35:01. Described as above. The following applies: source organism: Monodelphis domestica.
Assay [3] deals with HLA-B*18:01. Described as above. The settings on record: source organism: Monodelphis domestica.
In a further assay the target is HLA-B*53:01. The assay is described as above. The settings on record: source organism: Monodelphis domestica.
Assay [4] has as its target HLA-A*01:01. Described as above. The settings on record: source organism: Monodelphis domestica.
For a further assay, the target named is HLA-A*29:02. Described as above. The settings on record: source organism: Monodelphis domestica.
The target in the next assay is HLA-A*24:02. The assay is described as above. The settings on record: source organism: Monodelphis domestica.
Assay [5] concerns the target HLA-A*31:01. Described as above. The following applies: source organism: Monodelphis domestica.
The target in assay [6] is HLA-A*02:01. Described as above. The settings on record: source organism: Monodelphis domestica.
Another assay has as its target HLA-A*03:01. The description is as above. The following applies: source organism: Monodelphis domestica.
A further assay has as its target HLA-B*14:02. Described as above. The following applies: source organism: Monodelphis domestica.
The target of the next assay is HLA-A*25:01. Described as above. The settings on record: source organism: Monodelphis domestica.
Assay [7] addresses HLA-A*11:01. The assay is described as above. The following applies: source organism: Monodelphis domestica.
A further assay has as its target HLA-B*51:01. The assay is described as above. The settings on record: source organism: Monodelphis domestica.
Assay [8] addresses HLA-A*68:02. The description is as above. The settings on record: source organism: Monodelphis domestica.
For the next assay, the target named is HLA-B*44:03. The assay is described as above. The settings on record: source organism: Monodelphis domestica.
The target of assay [9] is HLA-B*58:01. Described as above. The settings on record: source organism: Monodelphis domestica.
The next assay addresses HLA-B*39:01. Put plainly: IEDB peptide-MHC binding, purified MHC/competitive/fluorescence; filed as Kd, often an IC50 or EC50 that approximates it; ≥ and ≤ were set here for values at or beyond the usual limits of such assays. The settings on record: source organism: Vaccinia virus WR.
In another assay the target is HLA-B*15:09. The assay is described as above. The settings on record: source organism: Vaccinia virus WR.
Assay [10] has as its target HLA-A*68:02. Described as above. The following applies: source organism: Vaccinia virus WR.
Assay [11] deals with HLA-B*08:01. The assay can be described thus: IEDB peptide-MHC binding, purified MHC/direct/fluorescence; filed as Kd, often an IC50 or EC50 that approximates it; ≥ and ≤ were set here for values at or beyond the usual limits of such assays. The settings on record: source organism: Variola virus.
Assay [12] deals with HLA-B*07:02. The assay is described as above. The settings on record: source organism: Camelpox virus M-96.
For assay [13], the target named is HLA-B*18:01. The description is as above. The settings on record: source organism: Camelpox virus M-96.
In assay [14] the target is HLA-A*01:01. Described as above. The settings on record: source organism: Camelpox virus M-96.
Another assay deals with HLA-B*08:02. The assay is described as above. The following applies: source organism: Variola virus.
Another assay has as its target HLA-B*57:01. Described as above. The settings on record: source organism: Camelpox virus M-96.
In assay [15] the target is HLA-A*31:01. The assay is described as above. The settings on record: source organism: Camelpox virus M-96.
The next assay deals with HLA-A*69:01. The description is as above.
A further assay addresses HLA-B*08:03. The description is as above. The following applies: source organism: Variola virus.
Another assay has as its target HLA-A*26:02. The description is as above. The settings on record: source organism: Variola virus.
The target in assay [16] is HLA-A*11:01. Described as above. The following applies: source organism: Camelpox virus M-96.
A further assay addresses HLA-B*44:02. Described as above. The following applies: source organism: Camelpox virus M-96.
Another assay has as its target HLA-B*40:01. Described as above. The settings on record: source organism: Camelpox virus M-96.
A further assay addresses HLA-B*15:17. The description is as above. The settings on record: source organism: Camelpox virus M-96.
The target of a further assay is HLA-A*26:01. Described as above. The following applies: source organism: Variola virus.
A further assay deals with HLA-B*48:01. The assay is described as above. The following applies: source organism: Camelpox virus M-96.
A further assay addresses HLA-B*27:05. The assay is described as above. The following applies: source organism: Camelpox virus M-96.
Assay [17] has as its target HLA-B*58:01. The description is as above. The following applies: source organism: Camelpox virus M-96.
In the next assay the target is HLA-A*02:50. Put plainly: IEDB peptide-MHC binding, purified MHC/competitive/fluorescence; filed as Kd, often an IC50 or EC50 that approximates it; ≥ and ≤ were set here for values at or beyond the usual limits of such assays. The following applies: source organism: Yersinia bercovieri ATCC 43970.
A further assay deals with HLA-A*02:12. Put plainly: IEDB peptide-MHC binding, purified MHC/direct/fluorescence; filed as Kd, often an IC50 or EC50 that approximates it; ≥ and ≤ were set here for values at or beyond the usual limits of such assays. The following applies: source organism: Yersinia enterocolitica subsp. enterocolitica 8081.
In another assay the target is HLA-A*02:16. Described as above. The following applies: source organism: Yersinia enterocolitica subsp. enterocolitica 8081.
In assay [18] the target is HLA-A*02:01. The description is as above. The settings on record: source organism: Yersinia enterocolitica.
For a further assay, the target named is HLA-A*02:11. Described as above. The settings on record: source organism: Yersinia enterocolitica subsp. enterocolitica 8081.

As usually defined, the IC50 is the concentration that inhibits the measured activity by half. Read a high IC50 as lower potency. In general, Kd refers to the constant that tells how readily two partners part at equilibrium. A low value points to tighter binding.

As to LEYFQFVKKLL, the IC50 is ≥ 20 µM with HLA-B*37:01; 2.4 µM in the assay with HLA-B*08:01 [1]; ≥ 20 µM with HLA-B*07:02 [2]; 0.126 µM with HLA-B*40:02; ≥ 20 µM in the assay with HLA-B*35:01; 4.72 µM with HLA-B*18:01 [3]. Also, the IC50 with HLA-B*53:01, with HLA-A*01:01 [4], with HLA-A*29:02, with HLA-A*24:02, with HLA-A*31:01 [5] and in the assay with HLA-A*02:01 [6] was ≥ 20 µM in each case. Also, the IC50 with HLA-A*03:01, with HLA-B*14:02, with HLA-A*25:01, with HLA-A*11:01 [7], with HLA-B*51:01 and with HLA-A*68:02 [8] was ≥ 20 µM in each case. In addition, the IC50 with HLA-B*44:03 and with HLA-B*58:01 [9] was ≥ 20 µM throughout.

Turning to FENDIDEIL, the Kd is ≥ 20 µM in the assay with HLA-B*39:01; ≥ 20 µM with HLA-B*15:09; 2.14 µM with HLA-A*68:02 [10]; ≥ 20 µM with HLA-B*08:01 [11]; ≥ 20 µM with HLA-B*07:02 [12]; 0.122 µM in the assay with HLA-B*18:01 [13]. Moreover, the Kd with HLA-A*01:01 [14], with HLA-B*08:02, with HLA-B*57:01, with HLA-A*31:01 [15], with HLA-A*69:01 (source organism: Camelpox virus M-96) and with HLA-B*08:03 was ≥ 20 µM throughout. Further, the Kd with HLA-A*26:02 is ≥ 20 µM; in the assay with HLA-A*11:01 [16] it was ≥ 20 µM; with HLA-B*44:02, ≥ 20 µM; with HLA-B*40:01 it was 0.0053 µM; with HLA-B*15:17, ≥ 20 µM; in the assay with HLA-A*26:01 it was ≥ 20 µM. In addition, the Kd was 1.2 µM in the assay with HLA-B*48:01, ≥ 20 µM in the assay with HLA-B*27:05 and ≥ 20 µM with HLA-B*58:01 [17].

Turning to TLLCGAATA, the Kd worked out at 0.012 µM in the assay with HLA-A*02:50; 0.021 µM with HLA-A*02:12; 0.394 µM with HLA-A*69:01 (source organism: Yersinia enterocolitica); 0.057 µM with HLA-A*02:16; 0.196 µM with HLA-A*02:01 [18]; 0.042 µM with HLA-A*02:11.
